Article PMC5116005 (Journal of molecular biology, 2016)
Ends that are not written are not given here.

Legend:
NtrC1^C oligomer = assay: Native PAGE gel binding assay, dye fluorescence visualized at 488 nm; design: species or system Aquifex aeolicus; settings: 0.16 µM Alexa488-σ54(16-41), ADP-BeF3− at 500 µM, native PAGE 4–15%, Typhoon 488 nm
[1] = target: T1, NtrC1^C(121–387), central AAA+ ATPase domain of A. aeolicus NtrC1 (A. aeolicus, UniProt O67198 121-387); assay: fluorescence polarisation
T1 sequence (looked up): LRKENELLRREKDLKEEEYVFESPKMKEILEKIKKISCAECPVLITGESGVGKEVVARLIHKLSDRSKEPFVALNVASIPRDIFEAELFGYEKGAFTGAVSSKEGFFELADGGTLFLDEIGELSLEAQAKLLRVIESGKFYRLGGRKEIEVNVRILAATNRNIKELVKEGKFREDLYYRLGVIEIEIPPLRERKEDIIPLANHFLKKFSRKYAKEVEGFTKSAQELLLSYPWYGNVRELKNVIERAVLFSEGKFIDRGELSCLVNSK

[2] = target: Alexa488-full length σ^54 (K2C) (UniProt P24255); assay: fluorescence polarisation

Molecule: Alexa488-σ^54(16-41): σ54(16-41) with N-terminal Trp-Cys, cysteine derivatized with Alexa Fluor 488 maleimide (WC(Alexa Fluor 488 maleimide)LLLKQDLELLTYQTQELEKLIHEEVL)
- Binding to NtrC1^C oligomer on native gel with ADP-BeF3− (NtrC1^C oligomer): bound to NtrC1^C

Molecule: WC(Alexa Fluor 488 maleimide)LLLKQDLELLTYQTQELEKLIHEEVL [Alexa488-σ^54(16-41) (A.a. σ^54(WC-16-41))]
- Kd [1]: 1000 nM

B1: NtrC1^C(121–387), central AAA+ ATPase domain of A. aeolicus NtrC1 (domain or fragment)
chain: LRKENELLRREKDLKEEEYVFESPKMKEILEKIKKISCAECPVLITGESGVGKEVVARLIHKLSDRSKEPFVALNVASIPRDIFEAELFGYEKGAFTGAVSSKEGFFELADGGTLFLDEIGELSLEAQAKLLRVIESGKFYRLGGRKEIEVNVRILAATNRNIKELVKEGKFREDLYYRLGVIEIEIPPLRERKEDIIPLANHFLKKFSRKYAKEVEGFTKSAQELLLSYPWYGNVRELKNVIERAVLFSEGKFIDRGELSCLVNSK
- Kd [2]: 2000 nM
